From the supplement of paper PMC9732359
± gives the uncertainty stated by the source.

Assay: protein stability index of a GFP-peptide fusion (yeast GPS) (PSI 1-4); higher = more stable; sorted into four equal gates, so the index is relative within each strain
Summary of the method: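 Plasmids in a pooled yeast library fused tiled 17-residue yeast protein peptides downstream of GFP and also expressed Cherry. Mid-log cultures grown without leucine were sorted into four equal gates by GFP/Cherry fluorescence ratio. Each gate's plasmids were PCR-amplified and Illumina-sequenced, and reads were matched to strains by barcodes. The protein stability index is derived by multiplying each gate's read frequency by its gate number and summing the results.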

| Sequence | protein stability index (doa10∆) | protein stability index (pdr5∆) | protein stability index (san1∆) | protein stability index (ubr1∆) |
| --- | --- | --- | --- | --- |
| VDDAIELALKTLSKTTD [PRE9] | 2.43 ± 0.066 | 1.92 ± 0.063 | 2.42 ± 0.074 | 2.64 ± 0.057 |
| RQLAGAIGYEPLSLTHR [DIS3] | 2.94 ± 0.057 | 2.87 ± 0.057 | 2.86 ± 0.07 | 2.93 ± 0.041 |
| QPGYADLEHKEDCVEEF [QCR6] | 2.42 ± 0.058 | 2.56 ± 0.068 | 2.52 ± 0.074 | 2.68 ± 0.044 |
| GSDEAYVKDARKDTVSR [RPC40] | 3.23 ± 0.11 | 3.17 ± 0.12 | 3.13 ± 0.061 | 3.35 ± 0.13 |
| QAELLQLAVKIINKVLD [YJL039C/NUP192] | 2.33 ± 0.25 | 3.09 ± 0.091 | 2.74 ± 0.13 |  |
| VEWNDQVEKLGKKMEAR [RPN9] |  | 3.28 ± 0.15 | 3.29 ± 0.12 | 3.34 ± 0.14 |
| WASKYGQEYPRIIGLSA [BRR2] | 1.47 ± 0.073 | 2.32 ± 0.089 | 1.87 ± 0.085 | 1.93 ± 0.052 |
| KKVNGTSYKKWSFDLPE [PRP8] | 2.2 ± 0.07 | 2.36 ± 0.084 | 2.25 ± 0.1 | 3.35 ± 0.12 |
| HWNLPGERIFNKIRNLE [SIR2] | 3.3 ± 0.098 | 3.23 ± 0.097 | 3.2 ± 0.056 | 3.29 ± 0.068 |
| DTGTLDTKSVVGLVMFS [RPN2] | 2.67 ± 0.083 | 2.66 ± 0.084 | 2.91 ± 0.075 | 2.42 ± 0.069 |
| LVNGFSQSQQKLLKEKV [MED2] | 2.03 ± 0.055 | 2.27 ± 0.068 | 2.41 ± 0.066 | 2.61 ± 0.052 |
| VRWIETQDVFLKDFNTE [FAS2] | 3.227 ± 0.03 | 3.065 ± 0.026 | 3.014 ± 0.025 | 3.154 ± 0.021 |
| RSSYMLELVNTPLTENI [YCG1] | 3.11 ± 0.096 | 3.18 ± 0.082 | 3.04 ± 0.073 | 2.91 ± 0.084 |
| RYNGGNDNIGANRSRFN [SMB1] | 3.24 ± 0.099 | 3.39 ± 0.078 | 3.14 ± 0.048 | 3.35 ± 0.08 |
| SVMDPITSKRKAELLLK [DIS3] | 2.83 ± 0.088 | 2.76 ± 0.12 | 2.55 ± 0.12 | 2.85 ± 0.085 |
| ANYIKERTKNAQFIVIS [SMC4] | 2.76 ± 0.11 | 1.5 ± 0.067 | 1.49 ± 0.11 | 2.27 ± 0.071 |
| IYVHVRRSTPFSKIAEY [ESC2] | 2.16 ± 0.053 | 2.33 ± 0.049 | 2.52 ± 0.05 | 2.52 ± 0.047 |
| GGFEDVEEYTWSSLLNE [RPB2] |  | 3.19 ± 0.17 | 3.12 ± 0.085 |  |
| YKAKIKELENNLERLRS [YIL149C/MLP2] | 3.22 ± 0.095 | 1.65 ± 0.051 | 2.64 ± 0.078 | 3.11 ± 0.054 |
| KQQPTMQANKLDSQETP [SWI3] | 2.95 ± 0.12 | 2.98 ± 0.073 | 2.92 ± 0.081 | 2.95 ± 0.071 |
| VEIAFLFRAIYLYCLDN [YCG1] | 1.54 ± 0.065 | 1.3 ± 0.054 | 1.21 ± 0.11 | 1.2 ± 0.05 |
| HDAPRGLFPFESYKPSV [SWI3] | 3.31 ± 0.091 | 3.08 ± 0.11 | 3.15 ± 0.11 | 3.1 ± 0.079 |
| VACLFITISIHGKPTKG [SSN8] | 1.19 ± 0.061 | 1.24 ± 0.061 | 1.28 ± 0.16 | 1.5 ± 0.11 |
| HGAFMDIIWLQRDLGLY [RRP6] | 1.95 ± 0.047 | 1.49 ± 0.052 | 1.23 ± 0.069 | 1.46 ± 0.032 |
| ENDIEIKGPEFKFSGTV [YLR335W/NUP2] | 2.72 ± 0.14 | 3.04 ± 0.12 | 3.07 ± 0.15 |  |
| LTGNQLPTPTPTEMEPD [SWI1] | 2.67 ± 0.051 | 2.92 ± 0.052 | 2.51 ± 0.062 | 2.85 ± 0.03 |

| Sequence | protein stability index (doa10∆) | protein stability index (pdr5∆) | protein stability index (san1∆) | protein stability index (ubr1∆) |
| --- | --- | --- | --- | --- |
| ITLENITRLCQTLGLES [MED1] | 2.07 ± 0.04 | 2.28 ± 0.044 | 1.91 ± 0.055 | 1.89 ± 0.037 |
| PFYGSYTETDPAKVAEE [SRP54] | 3.19 ± 0.1 | 3.01 ± 0.14 | 3.08 ± 0.055 | 2.82 ± 0.099 |
| IIKGTDVYSPEKGSWEQ [BRR2] | 3.1 ± 0.06 | 3.35 ± 0.075 | 3.24 ± 0.11 | 3.25 ± 0.13 |
| VVEISNGNTSSKTVVTL [FAS1] | 3.11 ± 0.06 | 3.18 ± 0.05 | 3.28 ± 0.072 | 3.26 ± 0.06 |
| NAASQQPTPRSASNTAK [GAL11] | 2.84 ± 0.082 | 2.68 ± 0.055 | 2.78 ± 0.049 | 2.67 ± 0.039 |
| LFLYKELVKAHLGERAA [RPC82] | 2.72 ± 0.086 | 2.96 ± 0.09 | 2.88 ± 0.061 | 2.77 ± 0.11 |
| YEKELMGDELTRSHFNA [RPN6] | 2.96 ± 0.13 | 3.39 ± 0.15 | 3.34 ± 0.057 | 3.48 ± 0.1 |
| EITEKKNGESLEGEEIK [RPN1] |  | 3.03 ± 0.3 |  |  |
| STSFSFNAPATGNGTTT [YOR098C/NUP1] | 2.73 ± 0.042 | 2.97 ± 0.037 | 3.03 ± 0.033 | 3.005 ± 0.028 |
| MSDVEEVVEVQEETVVE [RPS12] | 3.15 ± 0.1 | 3.36 ± 0.11 | 2.89 ± 0.084 | 3.12 ± 0.12 |
| AVTHNLYYDEDINVESL [PUP2] | 3.16 ± 0.11 | 3.25 ± 0.088 | 3.05 ± 0.18 | 2.89 ± 0.06 |
| IANMVLPPEKIYSPLHS [SIR2] | 1.54 ± 0.035 | 1.99 ± 0.036 | 1.73 ± 0.05 | 1.67 ± 0.032 |
| AFSFGAKPDEKKNDEVS [YJL041W/NSP1] | 3.22 ± 0.16 | 3.19 ± 0.15 |  | 3.26 ± 0.17 |
| TGGTRTKTPGPGGQAAL [RPS14A] | 3.24 ± 0.04 | 3.11 ± 0.036 | 3.05 ± 0.034 | 3.149 ± 0.028 |
| NITKNLKTFNGSLALLK [POP4] |  | 3.19 ± 0.15 | 2.93 ± 0.082 | 3.13 ± 0.1 |
| TIGAIFLNHAFDYMNRY [CDC53] | 2.04 ± 0.065 | 2.1 ± 0.066 | 1.78 ± 0.076 | 1.89 ± 0.046 |
| SWRNITNLSGGEKTLSS [SMC4] | 3.37 ± 0.13 | 3.21 ± 0.078 | 2.81 ± 0.098 | 3.01 ± 0.11 |
| ILSVKLAELINMTTIAD [SRB6] | 2.6 ± 0.072 | 2.46 ± 0.076 | 2.75 ± 0.069 | 2.85 ± 0.068 |
| LTALGKEKEKEREEAEK [MED2] | 1.3 ± 0.23 | 1.43 ± 0.16 |  | 1.32 ± 0.15 |
| KLNTFNLQTFTHEQWSN [SRP72] | 3 ± 0.12 | 2.83 ± 0.078 | 2.36 ± 0.076 | 2.78 ± 0.062 |
| IHLNELLTNDESAFENL [SNF12] | 2.73 ± 0.057 | 2.91 ± 0.052 | 2.88 ± 0.067 | 3.03 ± 0.053 |
| EIEELKSSIQNLNELES [SMC3] | 1.66 ± 0.2 | 2.06 ± 0.17 | 2.07 ± 0.28 | 2.71 ± 0.21 |
| RQGRSNRRGMLALSGTS [SNF5] | 2.89 ± 0.068 | 2.97 ± 0.057 | 2.81 ± 0.058 | 2.74 ± 0.051 |
| SLEQRTLNPDLFLYKEL [RPC82] | 3.28 ± 0.28 | 3.13 ± 0.19 | 3.21 ± 0.092 | 3.74 ± 0.27 |
| KVKAGVRSANEDGTFSV [RRP43] | 3.2 ± 0.097 | 3.24 ± 0.11 | 3.48 ± 0.061 | 3.43 ± 0.077 |
| SKTLSLIQSYSLLDKPD [FAS1] | 2.18 ± 0.078 | 2.01 ± 0.057 | 2.12 ± 0.21 | 2.14 ± 0.074 |
